The record followed here is US20200181601A1 (INSTITUT PASTEUR, published 2020).

The target of test [1] is T1, PulD-N, soluble monomeric fragment corresponding to the N-terminal region of PulD from Klebsiella oxytoca (Klebsiella oxytoca, UniProt P15644 28-264).
T1 construct: domain: N-terminal region of PulD; also called N-terminal domain of PulD
T1 sequence: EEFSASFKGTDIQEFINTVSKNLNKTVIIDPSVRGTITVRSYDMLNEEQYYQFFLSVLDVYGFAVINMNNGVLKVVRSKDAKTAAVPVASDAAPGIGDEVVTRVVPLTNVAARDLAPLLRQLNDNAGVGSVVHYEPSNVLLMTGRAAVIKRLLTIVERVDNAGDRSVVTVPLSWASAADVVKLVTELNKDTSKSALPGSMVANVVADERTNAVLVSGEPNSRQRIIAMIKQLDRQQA
Put plainly: SPR, immobilized biotinylated PulD-N.

Test [2] concerns the target T1, PulD-N, soluble monomeric fragment ….
In test [3] the target is T2, full-length PulD, monomeric (Klebsiella oxytoca, UniProt P15644 28-660).
T2 sequence: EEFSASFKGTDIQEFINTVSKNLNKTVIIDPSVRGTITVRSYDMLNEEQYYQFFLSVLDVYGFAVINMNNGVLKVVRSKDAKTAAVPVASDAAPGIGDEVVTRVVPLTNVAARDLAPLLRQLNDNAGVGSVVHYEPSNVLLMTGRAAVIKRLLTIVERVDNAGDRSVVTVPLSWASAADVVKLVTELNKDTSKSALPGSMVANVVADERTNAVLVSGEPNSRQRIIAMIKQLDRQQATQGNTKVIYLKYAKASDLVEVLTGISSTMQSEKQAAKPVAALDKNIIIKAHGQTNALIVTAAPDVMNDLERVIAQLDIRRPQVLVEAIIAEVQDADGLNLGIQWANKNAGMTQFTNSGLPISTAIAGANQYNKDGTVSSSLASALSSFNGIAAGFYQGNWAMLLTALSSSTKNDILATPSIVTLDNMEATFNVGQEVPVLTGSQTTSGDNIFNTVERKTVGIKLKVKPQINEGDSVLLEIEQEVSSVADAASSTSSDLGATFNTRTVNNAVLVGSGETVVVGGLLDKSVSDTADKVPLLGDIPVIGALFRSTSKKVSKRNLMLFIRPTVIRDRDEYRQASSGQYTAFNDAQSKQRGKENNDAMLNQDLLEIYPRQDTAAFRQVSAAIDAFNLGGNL
Description: cell-based or functional assay.

In test [4] the target is T3, PulD-CS, PulD variant lacking the N-domain (Klebsiella oxytoca, UniProt P15644 28-660).
T3 construct: domain: PulD variant lacking the N-domain
Description: far-Western immunoblot. Background: In western blotting, separated proteins are transferred to a membrane and probed.

B1: wild type Sac7d (recombinant) (other)
chain: VKVKFKYKGEEKEVDTSKIKKVWRVGKMVSFTYDDNGKTGRGAVSEKDAPKELLDMLARAEREKK
notes: also called Sac7d wt; wt Sac7d
With B1, the binding result in test [1] was “no binding”.

B2: Sac7*6-PhoA chimera (binder 6 fused to the N-terminus of E. coli alkaline phosphatase) (designed binder)
chain: RTPEMPVDGTGSVKVKFVLGGEEKEVDTSKIRHVYRYGKHVTFSYDDNGKLGLGLVKEKDAPKELLDMLARAEREKKLRAQPGVLENRAAQGDITAPGGARRLTGDQTAALRDSLSDKPAKNIILLIGDGMGDSEITAARNYAEGAGGFFKGIDALPLTGQYTHYALNKKTGKPDYVTDSAASATAWSTGVKTYNGALGVDIHEKDHPTILEMAKAAGLATGNVSTAELQGATPAALVAHVTSRKCYGPSATSEKCPGNALEKGGKGSITEQLLNARADVTLGGGAKTFAETATAGEWQGKTLREQAQARGYQLVSDAASLNSVTEANQQKPLLGLFADGNMPVRWLGPKATYHGNIDKPAVTCTPNPQRNDSVPTLAQMTDKAIELLSKNEKGFFLQVEGASIDKQGHAANPCGQIGETVDLDEAVQRALEFAKKEGNTLVIVTADHAHASQIVAPDTKAPGLTQALNTKDGAVMVMSYGNSEEDSQEHTGSQLRIAAYGPHAANVVGLTDQTDLFYTMKAALGLK
notes: also called clone 6-alkalin phosphatase fusion; Sac7*-PhoA
With B2, the ratio signal/background in test [2] was above 10. Moreover, in test [3], the “inhibition of pullulanase secretion, strain PAP5198 pCHAP231, IPTG induced” value (“inhibition of pullulanase secretion” below) is above 90%. The binding result in test [4] is recorded as “no binding”.

B3: Sac7*33-PhoA chimera (binder 33 fused to the N-terminus of E. coli alkaline phosphatase) (designed binder)
chain: RTPEMPVDGTGSVKVKFTWYGEEKEVDTSKIMSVCRWGKRVAFSYDDNGKIDYGLVDEKDAPKELLDMLARAEREKKLRAQPGVLENRAAQGDITAPGGARRLTGDQTAALRDSLSDKPAKNIILLIGDGMGDSEITAARNYAEGAGGFFKGIDALPLTGQYTHYALNKKTGKPDYVTDSAASATAWSTGVKTYNGALGVDIHEKDHPTILEMAKAAGLATGNVSTAELQGATPAALVAHVTSRKCYGPSATSEKCPGNALEKGGKGSITEQLLNARADVTLGGGAKTFAETATAGEWQGKTLREQAQARGYQLVSDAASLNSVTEANQQKPLLGLFADGNMPVRWLGPKATYHGNIDKPAVTCTPNPQRNDSVPTLAQMTDKAIELLSKNEKGFFLQVEGASIDKQGHAANPCGQIGETVDLDEAVQRALEFAKKEGNTLVIVTADHAHASQIVAPDTKAPGLTQALNTKDGAVMVMSYGNSEEDSQEHTGSQLRIAAYGPHAANVVGLTDQTDLFYTMKAALGLK
As to B3, in test [2], the ratio signal/background was above 10. Besides, the “inhibition of pullulanase secretion” value in test [3] is above 90%.

B4: Sac7*40-PhoA chimera (binder 40 fused to the N-terminus of E. coli alkaline phosphatase) (designed binder)
chain: RTPEMPVDGTGSVKVKFGEHGEEKEVDTSKIMSVVRFGKWVCFRYDDNGKAGYGAVLEKDAPKELLDMLARAEREKKLRAQPGVLENRAAQGDITAPGGARRLTGDQTAALRDSLSDKPAKNIILLIGDGMGDSEITAARNYAEGAGGFFKGIDALPLTGQYTHYALNKKTGKPDYVTDSAASATAWSTGVKTYNGALGVDIHEKDHPTILEMAKAAGLATGNVSTAELQGATPAALVAHVTSRKCYGPSATSEKCPGNALEKGGKGSITEQLLNARADVTLGGGAKTFAETATAGEWQGKTLREQAQARGYQLVSDAASLNSVTEANQQKPLLGLFADGNMPVRWLGPKATYHGNIDKPAVTCTPNPQRNDSVPTLAQMTDKAIELLSKNEKGFFLQVEGASIDKQGHAANPCGQIGETVDLDEAVQRALEFAKKEGNTLVIVTADHAHASQIVAPDTKAPGLTQALNTKDGAVMVMSYGNSEEDSQEHTGSQLRIAAYGPHAANVVGLTDQTDLFYTMKAALGLK
notes: also called Sac7*-PhoA
On to B4, for which the ratio signal/background in test [2] is above 10. The “inhibition of pullulanase secretion” value in test [3] was above 90%. Also, in test [4], the binding result is “no binding”.
